In patent US20170313756A1:
Like-named read-outs stand apart in the source and are kept apart here. [ ]: non-standard residue; d: D form. The star is where a group is joined. dCha = N[C@H](CC1CCCCC1)C(=O)O; NH(CH2)3Ph = c1ccc(CCCN*)cc1

How the values were obtained:
[1] = target: melanocortin 1 receptor (MC1R) (UniProt Q01726); test: 125I-NDP-MSH competition, HEK293 membranes
[2] = target: melanocortin 3 receptor (MC3R) (UniProt P41968); test: 125I-NDP-MSH competition, HEK293 membranes
[3] = target: melanocortin 4 receptor (MC4R) (UniProt P32245); test: 125I-NDP-MSH competition, HEK293 membranes
melanocortin 4 receptor (MC4R), sequence (P32245 whole entry): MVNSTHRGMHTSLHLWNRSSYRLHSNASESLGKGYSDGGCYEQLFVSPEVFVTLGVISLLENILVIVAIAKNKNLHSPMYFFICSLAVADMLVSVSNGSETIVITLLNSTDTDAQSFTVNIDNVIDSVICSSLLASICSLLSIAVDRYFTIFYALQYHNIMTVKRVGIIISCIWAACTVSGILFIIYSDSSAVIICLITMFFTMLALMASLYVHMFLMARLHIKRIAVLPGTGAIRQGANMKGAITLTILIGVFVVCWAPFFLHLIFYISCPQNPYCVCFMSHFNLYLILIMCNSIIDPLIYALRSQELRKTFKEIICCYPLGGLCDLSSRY

[4] = target: melanocortin 5 receptor (MC5R) (UniProt P33032); test: 125I-NDP-MSH competition, HEK293 membranes
melanocortin 5 receptor (MC5R), sequence (P33032 whole entry): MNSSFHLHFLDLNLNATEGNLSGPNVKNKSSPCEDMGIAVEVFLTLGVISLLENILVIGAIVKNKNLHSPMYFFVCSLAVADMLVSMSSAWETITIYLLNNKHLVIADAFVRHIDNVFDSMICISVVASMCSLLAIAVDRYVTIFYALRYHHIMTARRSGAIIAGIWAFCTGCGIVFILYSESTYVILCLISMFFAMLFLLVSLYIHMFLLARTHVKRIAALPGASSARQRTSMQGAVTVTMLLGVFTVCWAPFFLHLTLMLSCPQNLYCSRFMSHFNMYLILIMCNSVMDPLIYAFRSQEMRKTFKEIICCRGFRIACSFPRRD

[5] = target: mouse MC1R (on murine B16-F1 melanoma cells) (mouse) (UniProt Q01727); test: cell-based or functional assay
mouse MC1R (on murine B16-F1 melanoma cells) (mouse), sequence (Q01727 whole entry): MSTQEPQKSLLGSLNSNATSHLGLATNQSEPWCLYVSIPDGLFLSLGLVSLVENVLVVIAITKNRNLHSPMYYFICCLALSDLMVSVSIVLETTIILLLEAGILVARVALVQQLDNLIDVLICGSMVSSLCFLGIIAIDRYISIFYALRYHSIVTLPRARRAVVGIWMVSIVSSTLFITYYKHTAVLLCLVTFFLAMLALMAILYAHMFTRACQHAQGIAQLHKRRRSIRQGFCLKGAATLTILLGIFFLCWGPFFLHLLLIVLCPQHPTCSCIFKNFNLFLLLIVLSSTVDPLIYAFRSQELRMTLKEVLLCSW

[6] = target: melanocortin 1 receptor (MC1R) (UniProt Q01726); test: 125I-NDP-MSH competition, HEK293 membranes; remark: listed apart in the source

melanocortin 1 receptor (MC1R), sequence (Q01726 whole entry): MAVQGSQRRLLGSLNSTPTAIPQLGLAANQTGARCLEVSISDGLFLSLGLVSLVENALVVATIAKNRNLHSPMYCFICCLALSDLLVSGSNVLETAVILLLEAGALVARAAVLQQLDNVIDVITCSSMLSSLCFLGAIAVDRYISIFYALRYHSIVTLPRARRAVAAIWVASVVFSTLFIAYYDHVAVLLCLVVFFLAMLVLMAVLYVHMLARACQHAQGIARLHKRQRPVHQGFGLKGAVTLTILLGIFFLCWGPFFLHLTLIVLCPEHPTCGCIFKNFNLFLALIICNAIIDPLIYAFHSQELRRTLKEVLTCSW
melanocortin 3 receptor (MC3R), sequence (P41968 whole entry): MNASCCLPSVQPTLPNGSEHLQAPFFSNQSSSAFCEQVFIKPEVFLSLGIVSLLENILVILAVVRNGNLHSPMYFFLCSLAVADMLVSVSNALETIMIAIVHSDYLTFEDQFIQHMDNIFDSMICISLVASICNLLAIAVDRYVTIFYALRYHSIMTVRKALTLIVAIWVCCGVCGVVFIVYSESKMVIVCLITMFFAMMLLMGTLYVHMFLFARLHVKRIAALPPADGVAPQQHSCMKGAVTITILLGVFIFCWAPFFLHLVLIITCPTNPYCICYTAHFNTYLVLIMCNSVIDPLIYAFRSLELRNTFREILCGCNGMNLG

Row | Binder | Ki [1] | further results
1 | Ac-[dV][dP][dK]G[dW][dR][dCha][dH][dS][dI][dI][dS][dS]-NH2 (SMILES CC[C@@H](C)[C@@H](NC(=O)[C@@H](CO)NC(=O)[C@@H](Cc1c[nH]cn1)NC(=O)[C@@H](CC1CCCCC1)NC(=O)[C@@H](CCCNC(=N)N)NC(=O)[C@@H](Cc1c[nH]c2ccccc12)NC(=O)CNC(=O)[C@@H](CCCCN)NC(=O)[C@H]1CCCN1C(=O)[C@H](NC(C)=O)C(C)C)C(=O)N[C@@H](C(=O)N[C@H](CO)C(=O)N[C@H](CO)C(N)=O)[C@H](C)CC) [RI α-MSH analog 891] | 0.43 nM | Ki [2]: 8000 nM; Ki [3]: 3200 nM; Ki [4]: 2500 nM; EC50, cAMP in B16-F1 cells [5]: 81 nM
2 | Ac-[dW][dR]F[dH]-NH2 [peptide 883] |  | Ki [6]: > 30000 nM
3 | Ac-[dW][dR]F[dH]-{1,6‑diaminohexane-stearyl} [peptide 882] | 120 nM | fold improvement of binding over wrFh [6]: > 250 fold
4 | H-[dV][dP][dK]G[dW][dR][dF][dH]-{NH(CH2)3Ph} (SMILES CC(C)[C@@H](N)C(=O)N1CCC[C@@H]1C(=O)N[C@H](CCCCN)C(=O)NCC(=O)N[C@H](Cc1c[nH]c2ccccc12)C(=O)N[C@H](CCCNC(=N)N)C(=O)N[C@H](Cc1ccccc1)C(=O)N[C@H](Cc1c[nH]cn1)C(=O)NCCCc1ccccc1) [peptide 847] | 104 nM | Ki [6]: 150 nM
5 | VPKGWRFHEASYS (N-terminal acetyl (Ac); C-terminal amide; D-isomers at all residues except Gly 4) [peptide 807] | 1400 nM | 
6 | VPKGWRFHAMSYS (N-terminal acetyl (Ac); C-terminal amide; D-isomers at all residues except Gly 4) [peptide 808] | 2.5 nM | 
7 | VPKGWRFAEMSYS (N-terminal acetyl (Ac); C-terminal amide; D-isomers at all residues except Gly 4) [peptide 809] | 1200 nM | 
8 | VPKGWAFHEMSYS (N-terminal acetyl (Ac); C-terminal amide; D-isomers at all residues except Gly 4) [peptide 811] | 13000 nM | 
9 | VPKGARFHEMSYS (N-terminal acetyl (Ac); C-terminal amide; D-isomers at all residues except Gly 4) [peptide 812] | 3000 nM | 
10 | H-[dV][dP][dK]G[dW][dR][dF][dH]-OH (SMILES CC(C)[C@@H](N)C(=O)N1CCC[C@@H]1C(=O)N[C@H](CCCCN)C(=O)NCC(=O)N[C@H](Cc1c[nH]c2ccccc12)C(=O)N[C@H](CCCNC(=N)N)C(=O)N[C@H](Cc1ccccc1)C(=O)N[C@H](Cc1c[nH]cn1)C(=O)O) [peptide 847int] | 150 nM | 
11 | VPXGWRFHEMSYS (N-terminal acetyl (Ac); C-terminal amide; D-Ornithine at 3; D-isomers at all residues except Gly 4) [peptide 857] | 3 nM | 
12 | VPXGWRFHEMSYS (N-terminal acetyl (Ac); C-terminal amide; D-Norleucine at 3; D-isomers at all residues except Gly 4) [peptide 858] | 18 nM | 
13 | VPKGXRFHEMSYS (N-terminal acetyl (Ac); C-terminal amide; 3-benzothienyl-D-Alanine at 5; D-isomers at all residues except Gly 4) [peptide 859] | 206 nM | 
14 | VPKGXRFHEMSYS (N-terminal acetyl (Ac); C-terminal amide; 5-hydroxy-D-Trp at 5; D-isomers at all residues except Gly 4) [peptide 860] | 96 nM | 
15 | VPKGXRFHEMSYS (N-terminal acetyl (Ac); C-terminal amide; 5-methoxy-D-Trp at 5; D-isomers at all residues except Gly 4) [peptide 861] | 75 nM | 
16 | VPKGFRFHEMSYS (N-terminal acetyl (Ac); C-terminal amide; D-isomers at all residues except Gly 4) [peptide 862-b] | 128 nM | 

Row | Binder | Ki [1] | further results
17 | VPKGWHFHEMSYS (N-terminal acetyl (Ac); C-terminal amide; D-isomers at all residues except Gly 4) [peptide 865] | 2300 nM | 
18 | VPKGWRXHEMSYS (N-terminal acetyl (Ac); C-terminal amide; 3-pyridyl-D-Alanine at 7; D-isomers at all residues except Gly 4) [peptide 867] | 480 nM | 
19 | VPKGWRXHEMSYS (N-terminal acetyl (Ac); C-terminal amide; 2-thienyl-D-Alanine at 7; D-isomers at all residues except Gly 4) [peptide 868] | 5.4 nM | 
20 | VPKGWRXHEMSYS (N-terminal acetyl (Ac); C-terminal amide; D-cyclohexylalanine (D-Cha) at 7; D-isomers at all residues except Gly 4) [peptide 869] | 2.2 nM | Ki [4]: 25000 nM
21 | VPKGWRWHEMSYS (N-terminal acetyl (Ac); C-terminal amide; D-isomers at all residues except Gly 4) [peptide 870] | 2500 nM | 
22 | VPKGWRXHEMSYS (N-terminal acetyl (Ac); C-terminal amide; 4-Nitro-D-Phe at 7; D-isomers at all residues except Gly 4) [peptide 871] | 324 nM | 
23 | VPKGWRFREMSYS (N-terminal acetyl (Ac); C-terminal amide; D-isomers at all residues except Gly 4) [peptide 872] | 13.5 nM | 
24 | VPKGWRFWEMSYS (N-terminal acetyl (Ac); C-terminal amide; D-isomers at all residues except Gly 4) [peptide 873] | 1900 nM | 
25 | VPKGWRFHDMSYS (N-terminal acetyl (Ac); C-terminal amide; D-isomers at all residues except Gly 4) [peptide 875] | 400 nM | 
26 | VPKGWRFHEXSYS (N-terminal acetyl (Ac); C-terminal amide; α-methyl-D-Met at 10; D-isomers at all residues except Gly 4) [peptide 877] | 282 nM | 
27 | VPKGWRFHEXSYS (N-terminal acetyl (Ac); C-terminal amide; D-buthionine at 10; D-isomers at all residues except Gly 4) [peptide 878] | 2.3 nM | Ki [2]: 40000 nM; Ki [4]: 30000 nM
28 | VPKGWRFHEKSYS (N-terminal acetyl (Ac); C-terminal amide; D-isomers at all residues except Gly 4) [peptide 879] | 832 nM | 
29 | Ac-[dV][dP][dK]G[dW][dR]F[dH][dS][dI][dI][dS][dS]-NH2 (SMILES CC[C@@H](C)[C@@H](NC(=O)[C@@H](CO)NC(=O)[C@@H](Cc1c[nH]cn1)NC(=O)[C@H](Cc1ccccc1)NC(=O)[C@@H](CCCNC(=N)N)NC(=O)[C@@H](Cc1c[nH]c2ccccc12)NC(=O)CNC(=O)[C@@H](CCCCN)NC(=O)[C@H]1CCCN1C(=O)[C@H](NC(C)=O)C(C)C)C(=O)N[C@@H](C(=O)N[C@H](CO)C(=O)N[C@H](CO)C(N)=O)[C@H](C)CC) [peptide 880] | 1.8 nM | Ki [2]: 18000 nM; Ki [3]: 10000 nM
30 | Ac-[dV][dP][dK]G[dW][dR][dF][dH][dS][dI][dI][dS][dS]-NH2 (SMILES CC[C@@H](C)[C@@H](NC(=O)[C@@H](CO)NC(=O)[C@@H](Cc1c[nH]cn1)NC(=O)[C@@H](Cc1ccccc1)NC(=O)[C@@H](CCCNC(=N)N)NC(=O)[C@@H](Cc1c[nH]c2ccccc12)NC(=O)CNC(=O)[C@@H](CCCCN)NC(=O)[C@H]1CCCN1C(=O)[C@H](NC(C)=O)C(C)C)C(=O)N[C@@H](C(=O)N[C@H](CO)C(=O)N[C@H](CO)C(N)=O)[C@H](C)CC) [peptide 886] | 1 nM | Ki [2]: 19000 nM; Ki [3]: 10000 nM; Ki [4]: 20000 nM
31 | VPKGWRXHEXSYS (N-terminal acetyl (Ac); C-terminal amide; D-Cha at 7; D-buthionine at 10; D-isomers at all residues except Gly 4) [peptide 890] | 1.9 nM | Ki [2]: 15000 nM; Ki [3]: 14000 nM; Ki [4]: 4500 nM
